The values that follow come from PMC6872938.

In assay [1] the target is His6-tagged HzTransib transposase (Transib transposase from Helicoverpa zea), residues 17-507 (Helicoverpa zea). The experiment in a line: SEC-MALS. In general terms: In gel filtration, larger molecules generally elute earlier.
The target in assay [2] is MBP-tagged HzTransib transposase (Transib transposase from Helicoverpa zea), residues 17-507 (Helicoverpa zea). Put plainly: SEC-MALS.

In general, stoichiometry N refers to a count of units in the complex or per binding partner. In turn, “His6-tagged HzTransib transposase (Transib transposase from Helicoverpa zea), residues 17-507 (enzyme)” had a stoichiometry N in assay [1] of 2.

On to “MBP-tagged HzTransib transposase (Transib transposase from Helicoverpa zea), residues 17-507 (enzyme)”, for which the stoichiometry N in assay [2] is 2.
